experiment: label from the status in PepcDB records

| Sequence | protein production |
| --- | --- |
| MSSRKIGLNLVVIVALAALFTGIWALYNRPVSVPDWPERISGFSFSPFRLNQNPQSGRYPSAEQMRTDLELVARHTHSIRTYSVQGALGDIPALAEAFGLRVSLGIWLGPDLASNEAEIARAIRIANESPSVVRVIVGNEALFRREVTAEQLIAYLDRVRAAVKVPVTTAEQWHVYREHPELAQHVDLIAAHVLPYWEATPVADAVDFVLERARELKAAFPRKPLLLAEVGWPSNGRMRGSAEATPADQAIYLRRLTNALNGEGYSYFVIEAFDQPWKVSAEGSVGAYWGVYNADRKAKFNFTGPVVPIPKWRALAIASAVLAVLAFTLLLIDSSSLRQRGRTFLAVVSFACASVLVWIAYDYSQQYSTWFSLTVGALLGVGALGVVIVLFTEAHELAEAVWTRKRRRPFLPITAARAYRPKVSIHVPCYNEPPELLKQTLDALARLDYPDYEVLVIDNNTRDPAVWQPVEAHCARLGERFRFFHVAPLEGFKAGALNFALGHVAADVEVVAVIDADYCVDPDWLRHMVPHFGDPRIAVVQSPQDYRDQHESAFKRLCYAEYKGFFHIGMVTRNDRDAIIEHGTMTMIRRSVLDELRWPEWCITEDAELGLRVFEKGLSAAYFERSYGKGVMPDTFIDFKKQRFRWAYGAIQIMKRHTDALLRGRGPDGSRLTRGQRYHFVAGWLPWIADGLNIFFTLGALLWSAAMIIVPKRVDPPLLIFAILPLALFVFKVGKILFLYRRTVGVDLRDSFFAALAGLSLSHTIAKAVLYGFVTRGIPFFRTPKMRSSHGLLVALAEAREEVFVMLLLWGAAAGIVAVQGVPSRDLLIWVAMLLVQSLPYLAALVMALLSSLPKPREELAGGAEQIGG | failed |
| MSSRPQREKSMTALTQHAPVLEIYQDIANLTSRMLAAANASNWDLVLNHGQEYVCLVERLRELEPGEPLDEAARGMKFDLLVRILENDAAVRDLALPQLARLSDLLGRMKRQQSLLATYSGKANGT | not failed |
| MSSRTVLAPGNDRNSDTHGTLGSGRSSDKGPSWSSRSLGARCRNSIASCPEEQPHVGNYRLLRTIGKGNFAKVKLARHILTGREVAIKIIDKTQLNPSSLQKLFREVRIMKGLNHPNIVKLFEVIETEKTLYLVMEYASAGEVFDYLVSHGRMKEKEARAKFRQIVSAVHYCHQKNIVHRDLKAENLLLDAEANIKIADFGFSNEFTLGSKLDTFCGSPPYAAPELFQGKKYDGPEVDIWSLGVILYTLVSGSLPFDGHNLKELRERVLRGKYRVPFYMSTDCESILRRFLVLNPAKRCTLEQIMKDKWINIGYEGEELKPYTEPEEDFGDTKRIEVMVGMGYTREEIKESLTSQKYNEVTATYLLLGRKTEEGGDRGAPGLALARVRAP | failed |
| MSSRWEGIDEFVAVAESGQFTAAAERLGVSSSHISRQIARLEDRLQTRLLYRSTRRVTLSEAGQTFLQHCQRLQDGREEALRAMGDLASEPKGLLRMTCAVAYGERFIVPLVTRFMALYPQLRVDVELSNHTLDLLHEGMDLAIRLGRLADSRLVATRLAPRRMYLCVSPAYLERYGRPHSLSELARHNCLVGSSDLWALQQDGREISQRVQGNWRCNSGQAVLDAALQGIGLCQLPDYYVLEHLNSGALVSLLEAHQPPNTAVWALYPQQRHLSPKVRRLVDYLKEGLAGLPEYRFG | failed |
| MSSSEIQTKNSEVQVKEMVAHKWDLASETFDTHAGHGIQTQKERDAWKRAFLKVFPGKSLKILDVGCGTGELSLLFAEMGHEVAGIDISGQMLKIAKAKAEALGADITFREGDAENPPFDTSSYDIVFSRHLLWTLPNPKVAVENWNRILRKNGKVVIVDGVWDSGTLGSRARKNAGALLTLLLERKDPRKGHSDYSDELKAQLPHFGGAPLEKVNEYLSNSGFGNIQIFDLKEVRDAQKEKMPLGERVVRSYQYYLICGRK | failed |
| MSSSRSSWNTRAETGADVPVIRDIVRAAFPTPEEAALVDALRADAGAWIEGLSLVAVDDSDRPVGHALLTRCHIGDSPALCLAPVAVRPEHQNSGAGAAAVRAALAAAGRLGEHHVVVLGHPEYYPRFGFGRASAHGIRLSIDVPDEALMVLTLDAAHPLPAGTVRYAAPFGI | failed |
| MSSSTALAPSTAPNIIQGGMGIGVSSWRLARHVARRGEIGIVSGTGIDSVVVRELQEGDPHDRRQMLADYPDEEIADHLVERFYRPDGLPADEPYDLLNMHPFEPSVRSQRILAAATYTEVRLAAAGHEGMIGMNLLAKLKRYTLPCIYGALLSDIDIVSIGAGIPLEEARQIPKLAAGEPAALRLDVDTSQAPDADDSYAYRFDPADVLDAPPTLDRPLFLPIISSDALARIMDAKLPDRRVDGWVVEGPVAGGHNAPPRNKNYADDGTPLYDERDEADLEAIRSLGKPFYLAGGHGSPEGLRAAHEAGAAGIQVGSLFSLTDESGYPPSTTRRLIRGLHTGEIEVSTEGRVSSTGFPFKVLTADGTLADAEVYERRARICDLGYLREPYLDEEGRLMGRCPAEPVKTYVSRGGAPEETEGRACLCNALMANIGLGQQRGARAEPPLFTGGDALEDLPLGSAEDPQYDADDVLNYLYQDVRPPRVSSPLRRPQPAD | failed |
| MSSSTERPALPLNECDPHWLRNLWVCVFGVFTTIVAMTLLLPFLPLYVEQLGVDNHAAVVLWSGATYGATFLSAAITAPLWGRLGDRYGRKLMLIRASLGMAVAMSLIGLAQTVWQLLLLRLLAGLLGGYASGATILVATQTPKARSGWALGVLSSGIMAGSLAGPLMGGVLPPLIGIRNTFFLAGGVIFITFLATLLLLREMPRKAPSRATDSALPAVVKLSGEQRRMITCMFVVASLVMFSTMSVEPIITVYLRQLKTDNVTMMAGVVMSATALGSILAASRLGRLADRIGYLPVLTSCLAMTALTLIPQAWVSNVWQLAALRFFMGLALGGLLPCVAAIIRHTVPNEVAGRMLGYSTSSQYLGQVLGPLAGGLLGGYLGIGSVFLGTAMVLAACSIMVGRMDMIRTPASSKL | failed |
| MSSSTNDYNDGNNNGVYPLSLYLSSLSGHQDIIHNPYNHQLKASPGHMVSAVPESLIDYMAFKSNNVVNQQGFEFPEVSKEIKKVVKKDRHSKIQTAQGIRDRRVRLSIGIARQFFDLQDMLGFDKASKTLDWLLKKSRKAIKEVVQAKNLNNDDEDFGNIGGDVEQEEEKEEDDNGDKSFVYGLSPGYGEEEVVCEATKAGIRKKKSELRNISSKGLGAKARGKAKERTKEMMAYDNPETASDITQSEIMDPFKRSIVFNEGEDMTHLFYKEPIEEFDNQESILTNMTLPTKMGQSYNQNNGILMLVDQSSSSNYNTFLPQNLDYSYDQNPFHDQTLYVVTDKNFPKGKVWIQDSFVN | failed |
| MSSVGDFEEIILHDLKPYYHVPGAIHSEGITFVKETGTLLWVDIFKGEVHKVEDIEQPESSHSFFSISRANYGKNASIEYPPNPDELKESVGCIFPILDGASQNEIKQVLFGSKFGIGKLDFSKSEWEYVILYSECPELSTDRAYKLRSNDGNVSPDGKYIYVGLMSDFPFDLEPIGCLLRVDLLAHKIELVWNCLLIPNAIHWDESDQKTMYVTDSLNFTIWKCPGGDLLKRDELIDVKNSNNQSFESPEPDGSAIWFSKDGKHSGFLFITVWSTSKVQMFDLTNGKLLKEFILPEQTPRVSCCCFVGKDLFVTTANAEINDAVRTNTDKNGGCIYKIPNVLDGNVPLESTKRQPLH | failed |
| MSSVLSFALAAWRRLRGYRDSLEVAGGLLAGNLFDTINMVVISMFSNYLVGQRGLLALYPQLSALTGGLLLSLSSRAISNHVLGGAGPEVYLTGLAVSAASGIFLTTVFSTATSIALGLEPVMMVPAALITLLGVLLVLTLLTWIIIVMLLRLGVSPDNVMPAILTSIIDMAVLILAIVAFSMVSRMDEGIYLVAVVTFSLALAFSAAAYDFRLTIDTTFSNFALQVVEMIAGVLLSATAPVLAATGLLPVLPPLNKLAGSVAGSMASAATTSVSLYGHYLDLPSMISTLFKITVGAIPSALYIGVIGYVLASVGEGSVGPQIVLASLLVSIVLSILGSLIAWLLVVVSIRAGLDPDAIAMPLATSLVDLLGVVSLSVVAWILLST | failed |
| MSTASYAFRDNLTMLRRNLLHARRYPSLTLNLLLTPVILLLLFVYVFGNVMSAGINGGHANRADYVDYLVPGILLLTVAMTSLGTAVAVCTDMTEGIMARFRTMAISRASVLIGHVIGSVLQTLMALVLVLGIGLAIGFRPDASPVEWIAAAALMALTSLAMTWLAVGIGLVSPNPEGASNIGTPLVMLPFLSSAFVPVDAMPGWFRWFAEYQPFSPLIETLRGLLLGSGIGTRNAVLAVAWCLGLSLLGYLWSKARFNREPRH | failed |

Source: a protein production outcome set (Wang et al. 2014)
